Experimental data taken from patent publication US11499162B2, “Plants having increased tolerance to herbicides” (BASF SE, priority 2016, dated 2022).

Assay type: biochemical
Conditions: pH 7.2
How it was run: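 E. coli resting cells expressing His-tagged TriA incubated with azines, melamine or atrazine. Enzyme in 25 mM sodium phosphate pH 7.2 at 30 °C, substrate 1–10 nM. Loss of parent and formation of OH-metabolite followed by UPLC-HR-MS; % degradation relative to empty-vector cells.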

Molecule	Degradation in % of 6-cyclopentyl-N4-(2,3,4,5,6-pentafluorophenyl)-1,3,5-triazine-2,4-diamine [%]	Degradation in % of Melamine [%]
Q71V: mutated TriA variant of SEQ ID NO: 2 (protein, Pseudomonas) MQTLSIQHGTLVTMDQYRRVLGDSWVHVQDGRIVALGVHAESVPPPADRVIDARGKVVLPGFINAHTHVNVILLRGGPSHGRQLYDWLFNVLYPGQKAMRPEDVAVAVRLYCAEAVRSGITTINDNADSAIYPGNIEAAMAVYGEVGVRVVYARMFFDRMDGRIQGYVDALKARSPQVELCSIMEETAVAKDRITALSDQYHGTAGGRISVWPAPAITPAVTVEGMRWAQAFARDRAVMWTLHMAESDHDERLHWMSPAEYMECYGLLDERLQVAHCVYFDRKDVRLLHRHNVKVASQVVSNAYLGSGVAPVPEMVERGMAVGIGTDDGNCNDSVNMIGDMKFMAHIHRAVHRDADVLTPEKILEMATIDGARSLGMDHEIGSIETGKRADLILLDLRHPQTTPHHHLAATIVFQAYGNEVDTVLIDGNVVMENRRLSFLPPERELAFLEEAQSRATAILQRANMVANPAWRSL	0	0
Q71NL92AY93L: mutated TriA variant of SEQ ID NO: 2 (protein, Pseudomonas) MQTLSIQHGTLVTMDQYRRVLGDSWVHVQDGRIVALGVHAESVPPPADRVIDARGKVVLPGFINAHTHVNNILLRGGPSHGRQLYDWLFNVALPGQKAMRPEDVAVAVRLYCAEAVRSGITTINDNADSAIYPGNIEAAMAVYGEVGVRVVYARMFFDRMDGRIQGYVDALKARSPQVELCSIMEETAVAKDRITALSDQYHGTAGGRISVWPAPAITPAVTVEGMRWAQAFARDRAVMWTLHMAESDHDERLHWMSPAEYMECYGLLDERLQVAHCVYFDRKDVRLLHRHNVKVASQVVSNAYLGSGVAPVPEMVERGMAVGIGTDDGNCNDSVNMIGDMKFMAHIHRAVHRDADVLTPEKILEMATIDGARSLGMDHEIGSIETGKRADLILLDLRHPQTTPHHHLAATIVFQAYGNEVDTVLIDGNVVMENRRLSFLPPERELAFLEEAQSRATAILQRANMVANPAWRSL	100	99
Q71NL88AL92AY93F: mutated TriA variant of SEQ ID NO: 2 (protein, Pseudomonas) MQTLSIQHGTLVTMDQYRRVLGDSWVHVQDGRIVALGVHAESVPPPADRVIDARGKVVLPGFINAHTHVNNILLRGGPSHGRQLYDWAFNVAFPGQKAMRPEDVAVAVRLYCAEAVRSGITTINDNADSAIYPGNIEAAMAVYGEVGVRVVYARMFFDRMDGRIQGYVDALKARSPQVELCSIMEETAVAKDRITALSDQYHGTAGGRISVWPAPAITPAVTVEGMRWAQAFARDRAVMWTLHMAESDHDERLHWMSPAEYMECYGLLDERLQVAHCVYFDRKDVRLLHRHNVKVASQVVSNAYLGSGVAPVPEMVERGMAVGIGTDDGNCNDSVNMIGDMKFMAHIHRAVHRDADVLTPEKILEMATIDGARSLGMDHEIGSIETGKRADLILLDLRHPQTTPHHHLAATIVFQAYGNEVDTVLIDGNVVMENRRLSFLPPERELAFLEEAQSRATAILQRANMVANPAWRSL	92	5
Q71NL88AL92AY93L: mutated TriA variant of SEQ ID NO: 2 (protein, Pseudomonas) MQTLSIQHGTLVTMDQYRRVLGDSWVHVQDGRIVALGVHAESVPPPADRVIDARGKVVLPGFINAHTHVNNILLRGGPSHGRQLYDWAFNVALPGQKAMRPEDVAVAVRLYCAEAVRSGITTINDNADSAIYPGNIEAAMAVYGEVGVRVVYARMFFDRMDGRIQGYVDALKARSPQVELCSIMEETAVAKDRITALSDQYHGTAGGRISVWPAPAITPAVTVEGMRWAQAFARDRAVMWTLHMAESDHDERLHWMSPAEYMECYGLLDERLQVAHCVYFDRKDVRLLHRHNVKVASQVVSNAYLGSGVAPVPEMVERGMAVGIGTDDGNCNDSVNMIGDMKFMAHIHRAVHRDADVLTPEKILEMATIDGARSLGMDHEIGSIETGKRADLILLDLRHPQTTPHHHLAATIVFQAYGNEVDTVLIDGNVVMENRRLSFLPPERELAFLEEAQSRATAILQRANMVANPAWRSL	99	4
Q71NL88AL92AY93LI217A: mutated TriA variant of SEQ ID NO: 2 (protein, Pseudomonas) MQTLSIQHGTLVTMDQYRRVLGDSWVHVQDGRIVALGVHAESVPPPADRVIDARGKVVLPGFINAHTHVNNILLRGGPSHGRQLYDWAFNVALPGQKAMRPEDVAVAVRLYCAEAVRSGITTINDNADSAIYPGNIEAAMAVYGEVGVRVVYARMFFDRMDGRIQGYVDALKARSPQVELCSIMEETAVAKDRITALSDQYHGTAGGRISVWPAPAATPAVTVEGMRWAQAFARDRAVMWTLHMAESDHDERLHWMSPAEYMECYGLLDERLQVAHCVYFDRKDVRLLHRHNVKVASQVVSNAYLGSGVAPVPEMVERGMAVGIGTDDGNCNDSVNMIGDMKFMAHIHRAVHRDADVLTPEKILEMATIDGARSLGMDHEIGSIETGKRADLILLDLRHPQTTPHHHLAATIVFQAYGNEVDTVLIDGNVVMENRRLSFLPPERELAFLEEAQSRATAILQRANMVANPAWRSL	99	12
Q71NL92AY93F: mutated TriA variant of SEQ ID NO: 2 (protein, Pseudomonas) MQTLSIQHGTLVTMDQYRRVLGDSWVHVQDGRIVALGVHAESVPPPADRVIDARGKVVLPGFINAHTHVNNILLRGGPSHGRQLYDWLFNVAFPGQKAMRPEDVAVAVRLYCAEAVRSGITTINDNADSAIYPGNIEAAMAVYGEVGVRVVYARMFFDRMDGRIQGYVDALKARSPQVELCSIMEETAVAKDRITALSDQYHGTAGGRISVWPAPAITPAVTVEGMRWAQAFARDRAVMWTLHMAESDHDERLHWMSPAEYMECYGLLDERLQVAHCVYFDRKDVRLLHRHNVKVASQVVSNAYLGSGVAPVPEMVERGMAVGIGTDDGNCNDSVNMIGDMKFMAHIHRAVHRDADVLTPEKILEMATIDGARSLGMDHEIGSIETGKRADLILLDLRHPQTTPHHHLAATIVFQAYGNEVDTVLIDGNVVMENRRLSFLPPERELAFLEEAQSRATAILQRANMVANPAWRSL	100	78
Q71NL88AL92AY93FF157L: mutated TriA variant of SEQ ID NO: 2 (protein, Pseudomonas) MQTLSIQHGTLVTMDQYRRVLGDSWVHVQDGRIVALGVHAESVPPPADRVIDARGKVVLPGFINAHTHVNNILLRGGPSHGRQLYDWAFNVAFPGQKAMRPEDVAVAVRLYCAEAVRSGITTINDNADSAIYPGNIEAAMAVYGEVGVRVVYARMFLDRMDGRIQGYVDALKARSPQVELCSIMEETAVAKDRITALSDQYHGTAGGRISVWPAPAITPAVTVEGMRWAQAFARDRAVMWTLHMAESDHDERLHWMSPAEYMECYGLLDERLQVAHCVYFDRKDVRLLHRHNVKVASQVVSNAYLGSGVAPVPEMVERGMAVGIGTDDGNCNDSVNMIGDMKFMAHIHRAVHRDADVLTPEKILEMATIDGARSLGMDHEIGSIETGKRADLILLDLRHPQTTPHHHLAATIVFQAYGNEVDTVLIDGNVVMENRRLSFLPPERELAFLEEAQSRATAILQRANMVANPAWRSL	91	1
Q71NL92AD128A: mutated TriA variant of SEQ ID NO: 2 (protein, Pseudomonas) MQTLSIQHGTLVTMDQYRRVLGDSWVHVQDGRIVALGVHAESVPPPADRVIDARGKVVLPGFINAHTHVNNILLRGGPSHGRQLYDWLFNVAYPGQKAMRPEDVAVAVRLYCAEAVRSGITTINDNAASAIYPGNIEAAMAVYGEVGVRVVYARMFFDRMDGRIQGYVDALKARSPQVELCSIMEETAVAKDRITALSDQYHGTAGGRISVWPAPAITPAVTVEGMRWAQAFARDRAVMWTLHMAESDHDERLHWMSPAEYMECYGLLDERLQVAHCVYFDRKDVRLLHRHNVKVASQVVSNAYLGSGVAPVPEMVERGMAVGIGTDDGNCNDSVNMIGDMKFMAHIHRAVHRDADVLTPEKILEMATIDGARSLGMDHEIGSIETGKRADLILLDLRHPQTTPHHHLAATIVFQAYGNEVDTVLIDGNVVMENRRLSFLPPERELAFLEEAQSRATAILQRANMVANPAWRSL	98	0
Q71NL92AD128G: mutated TriA variant of SEQ ID NO: 2 (protein, Pseudomonas) MQTLSIQHGTLVTMDQYRRVLGDSWVHVQDGRIVALGVHAESVPPPADRVIDARGKVVLPGFINAHTHVNNILLRGGPSHGRQLYDWLFNVAYPGQKAMRPEDVAVAVRLYCAEAVRSGITTINDNAGSAIYPGNIEAAMAVYGEVGVRVVYARMFFDRMDGRIQGYVDALKARSPQVELCSIMEETAVAKDRITALSDQYHGTAGGRISVWPAPAITPAVTVEGMRWAQAFARDRAVMWTLHMAESDHDERLHWMSPAEYMECYGLLDERLQVAHCVYFDRKDVRLLHRHNVKVASQVVSNAYLGSGVAPVPEMVERGMAVGIGTDDGNCNDSVNMIGDMKFMAHIHRAVHRDADVLTPEKILEMATIDGARSLGMDHEIGSIETGKRADLILLDLRHPQTTPHHHLAATIVFQAYGNEVDTVLIDGNVVMENRRLSFLPPERELAFLEEAQSRATAILQRANMVANPAWRSL	61	0
